Tests used:
[1] = target: AAV-2 with a wild-type capsid (rAAV-2 virion) (AAV-2) (UniProt P03135); experiment: all-A20 ELISA, virus needed for half maximal OD, against wild type
[2] = target: AAV-2 capsid mutant N568A/V571A (rAAV-2 virion) (AAV-2) (UniProt P03135); experiment: all-A20 ELISA, against wild type
[3] = target: AAV-2 capsid mutant E411A/T413A/G449A/N450A (rAAV-2 virion) (AAV-2) (UniProt P03135); experiment: all-A20 ELISA, against wild type
[4] = target: AAV-2 capsid mutant N360H (rAAV-2 virion) (AAV-2) (UniProt P03135); experiment: all-A20 ELISA, against wild type
[5] = target: AAV-2 capsid mutant G246A (rAAV-2 virion) (AAV-2) (UniProt P03135); experiment: all-A20 ELISA, against wild type
[6] = target: AAV-2 capsid mutant H134Q (rAAV-2 virion) (AAV-2) (UniProt P03135); experiment: all-A20 ELISA, against wild type
[7] = target: AAV-2 capsid mutant R334A (rAAV-2 virion) (AAV-2) (UniProt P03135); experiment: all-A20 ELISA, against wild type
[8] = target: AAV-2 capsid mutant R334A/N568A (rAAV-2 virion) (AAV-2) (UniProt P03135); experiment: all-A20 ELISA, against wild type
[9] = target: AAV-2 capsid mutant R334A/G449A (rAAV-2 virion) (AAV-2) (UniProt P03135); experiment: all-A20 ELISA, against wild type
[10] = target: AAV-2 capsid mutant V571K (rAAV-2 virion) (AAV-2) (UniProt P03135); experiment: all-A20 ELISA, against wild type
[11] = target: AAV-2 capsid mutant G449A (rAAV-2 virion) (AAV-2) (UniProt P03135); experiment: all-A20 ELISA, against wild type
[12] = target: AAV-2 capsid mutant H372Q (rAAV-2 virion) (AAV-2) (UniProt P03135); experiment: all-A20 ELISA, against wild type
[13] = target: AAV-2 capsid mutant D132N (rAAV-2 virion) (AAV-2) (UniProt P03135); experiment: all-A20 ELISA, against wild type
[14] = target: AAV-2 capsid mutant H372K (rAAV-2 virion) (AAV-2) (UniProt P03135); experiment: all-A20 ELISA, against wild type
[15] = target: AAV-2 capsid mutant S130T (rAAV-2 virion) (AAV-2) (UniProt P03135); experiment: all-A20 ELISA, against wild type
[16] = target: AAV-2 capsid mutant G449A/N568A (rAAV-2 virion) (AAV-2) (UniProt P03135); experiment: all-A20 ELISA, against wild type
[17] = target: AAV-2 capsid mutant N568K (rAAV-2 virion) (AAV-2) (UniProt P03135); experiment: all-A20 ELISA, against wild type
[18] = target: AAV-2 capsid mutant E411A/T413A (rAAV-2 virion) (AAV-2) (UniProt P03135); experiment: all-A20 ELISA, against wild type
[19] = target: AAV-2 capsid mutant R334A/G449A/N568A (rAAV-2 virion) (AAV-2) (UniProt P03135); experiment: all-A20 ELISA, against wild type
[20] = target: AAV-2 capsid mutant T413K (rAAV-2 virion) (AAV-2) (UniProt P03135); experiment: all-A20 ELISA, against wild type
[21] = target: AAV-2 capsid mutant E393D (rAAV-2 virion) (AAV-2) (UniProt P03135); experiment: all-A20 ELISA, against wild type
[22] = target: AAV-2 capsid mutant S130A (rAAV-2 virion) (AAV-2) (UniProt P03135); experiment: all-A20 ELISA, against wild type
[23] = target: AAV-2 capsid mutant N568A (rAAV-2 virion) (AAV-2) (UniProt P03135); experiment: all-A20 ELISA, against wild type
[24] = target: AAV-2 capsid mutant D357E (rAAV-2 virion) (AAV-2) (UniProt P03135); experiment: all-A20 ELISA, against wild type
[25] = target: AAV-2 capsid mutant S127A (rAAV-2 virion) (AAV-2) (UniProt P03135); experiment: cell-based or functional assay
[26] = target: AAV-2 capsid mutant K569A (rAAV-2 virion) (AAV-2) (UniProt P03135); experiment: cell-based or functional assay
[27] = target: AAV-2 with a wild-type capsid (rAAV-2 virion) (AAV-2) (UniProt P03135); experiment: cell-based or functional assay
[28] = target: AAV-2 capsid mutant E394K (rAAV-2 virion) (AAV-2) (UniProt P03135); experiment: cell-based or functional assay
[29] = target: AAV-2 capsid mutant Q248A (rAAV-2 virion) (AAV-2) (UniProt P03135); experiment: cell-based or functional assay
[30] = target: AAV-2 capsid mutant V571K (rAAV-2 virion) (AAV-2) (UniProt P03135); experiment: cell-based or functional assay
[31] = target: AAV-2 capsid mutant S247A (rAAV-2 virion) (AAV-2) (UniProt P03135); experiment: cell-based or functional assay
[32] = target: AAV-2 capsid mutant V571A (rAAV-2 virion) (AAV-2) (UniProt P03135); experiment: cell-based or functional assay
[33] = target: AAV-2 capsid mutant E437A (rAAV-2 virion) (AAV-2) (UniProt P03135); experiment: cell-based or functional assay
[34] = target: AAV-2 capsid mutant Q126A (rAAV-2 virion) (AAV-2) (UniProt P03135); experiment: cell-based or functional assay
[35] = target: AAV-2 capsid mutant W365A (rAAV-2 virion) (AAV-2) (UniProt P03135); experiment: cell-based or functional assay
[36] = target: AAV-2 capsid mutant E411A (rAAV-2 virion) (AAV-2) (UniProt P03135); experiment: cell-based or functional assay
[37] = target: AAV-2 capsid mutant K395A (rAAV-2 virion) (AAV-2) (UniProt P03135); experiment: cell-based or functional assay
[38] = target: AAV-2 capsid mutant K407A (rAAV-2 virion) (AAV-2) (UniProt P03135); experiment: cell-based or functional assay

Substance: murine monoclonal antibody A20 (protein A-purified anti-AAV-2 mouse monoclonal antibody)
- Fold decrease in binding of murine A20 [1]: 1 fold
- Fold decrease in binding of murine A20 [2]: 1 fold
- Fold decrease in binding of murine A20 [3]: 1 fold
- Fold decrease in binding of murine A20 [4]: 1 fold
- Fold decrease in binding of murine A20 [5]: 1 fold
- Fold decrease in binding of murine A20 [6]: 1 fold
- Fold decrease in binding of murine A20 [7]: 1 fold
- Fold decrease in binding of murine A20 [8]: 1 fold
- Fold decrease in binding of murine A20 [9]: 1 fold
- Fold decrease in binding of murine A20 [10]: 10 fold
- Fold decrease in binding of murine A20 [11]: 1 fold
- Fold decrease in binding of murine A20 [12]: 1 fold
- Fold decrease in binding of murine A20 [13]: 1 fold
- Fold decrease in binding of murine A20 [14]: 1 fold
- Fold decrease in binding of murine A20 [15]: 1 fold
- Fold decrease in binding of murine A20 [16]: 1 fold
- Fold decrease in binding of murine A20 [17]: 1 fold
- Fold decrease in binding of murine A20 [18]: 1 fold
- Fold decrease in binding of murine A20 [19]: 1 fold
- Fold decrease in binding of murine A20 [20]: 1 fold
- Fold decrease in binding of murine A20 [21]: 1 fold
- Fold decrease in binding of murine A20 [22]: 1 fold
- Fold decrease in binding of murine A20 [23]: 1 fold
- Fold decrease in binding of murine A20 [24]: 1 fold
- Fold decrease in neutralizing titer [25]: 57 fold
- neutralizing titer of A20 (reciprocal dilution) [25]: 9
- Fold decrease in A20 titer [26]: 1.7 fold
- % neutralized at dilutions of A20 greater than 1:1000 [27]: < 3%
- Fold decrease in neutralizing titer [27]: 1 fold
- neutralizing titer of A20 (reciprocal dilution) [27]: 509
- Fold decrease in A20 titer [28]: 0.9 fold
- Fold decrease in neutralizing titer [29]: 5.7 fold
- neutralizing titer of A20 (reciprocal dilution) [29]: 89
- Fold decrease in A20 titer [30]: 217 fold
- Fold decrease in neutralizing titer [31]: 2.8 fold
- neutralizing titer of A20 (reciprocal dilution) [31]: 180
- Fold decrease in A20 titer [32]: 1.4 fold
- Fold decrease in A20 titer [33]: 0.8 fold
- Fold decrease in neutralizing titer [34]: 2.5 fold
- neutralizing titer of A20 (reciprocal dilution) [34]: 203
- Fold decrease in A20 titer [35]: 0.5 fold
- Fold decrease in A20 titer [36]: 2.7 fold
- Fold decrease in A20 titer [37]: 0.9 fold
- Fold decrease in A20 titer [38]: 1.6 fold

From patent US20190314526A1
